Data: US20210363247A1, “Novel Treatments of Glaucoma” (The Regents of the University of California, priority 2019, published 2021)
Entries after “also recorded” stand apart in the source; their conditions may differ.

Experiments:
[1] = test system: human Schlemm's canal cells; test: tube formation of human Schlemm's canal cells; type: cell-based; settings: in vitro; vs scrambled siRNA, isotype control or vehicle control of ethanol (0.07%); *P<0.05
Source text: FIGS. 1A-G. (A-C) Real-time quantitative PCR data showing the expression levels of FZD5, ROR1 and FZD2 in human Schlemm's canal cells are regulated by sheer stress (A), Wnt5a intervention by small interference RNAs (siRNAs) (B), or Wnt5a stimulation (C). (D and E) Summarized data showing that tube formation of human Schlemm's canal cells was inhibited by FZD5 siRNA (D) or ROR1 siRNA (E), respectively. Scrambled siRNA was used as negative control. *P<0.05. (F and G) Representative images showing that tube formation of human Schlemm's canal cells are regulated by the intervention of FZD5 (F) or ROR1 (G) via siRNAs. *P<0.05. […]
(§1) In exemplary models vivo data were obtained using well-established mouse model of glaucoma with laser-induced occlusion of episcleral veins (Zhang L, et al. Establishment and Characterization of an Acute Model of Ocular Hypertension by Laser-Induced Occlusion of Episcleral Veins. Invest Ophthalmol Vis Sci. 2017 Aug. 1; 58(10):3879-3886). […] Central corneal thickness and RNFL were measured on Day 3 or Day 7 by in vivo OCT, respectively. […]

[2] = test system: mouse; test: mouse model, inhibitor delivered locally by eye drops, IOP; type: in vivo
Source text: (§2) These protocols employ two different antibodies: anti-human WNTSA antibody produced in rabbit purified immunoglobulin, buffered aqueous solution (Sigma-Aldrich SAB1411396), and an anti-human WNTSA monoclonal antibody produced in mouse clone 6F2, ascites fluid (Sigma-Aldrich SAB5300183), although other Wnt5a antibodies can be used, e.g. Hanaki et al., Mol Cancer Ther 11(2) February 2012; He et al. Oncogene. 2005, 24 (18): 3054-3058.
(§3) These protocols employ a t-butyloxycarbonyl-modified Wnt5a-derived hexapeptide (Box5) that functions as a potent antagonist of Wnt5a (Jenei, et la., PNAS USA, 106 (46), 19473-8), and 6,7-dihydro -10alpha-hydroxy radicicol, a potent WNT-5A expression inhibitor with relatively low toxicity and excellent stability (Shinonaga et al. Bioorg Med Chem. 2009 Jul. 1; 17(13):4622-35).
(§4) These protocols employed OMP18R5 (a humanized monoclonal antibody that binds FZD5), Abcam ab52565 (a monoclonal antibody that binds FZD2), and cirmtuzumab (a humanized IgG1 anti-ROR1 monoclonal antibody), though an anti-human FZD5, FZD2 siRNA and ROR1 polyclonal and monoclonal antibodies, are commercially available from multiple sources, e.g. ThermoFisher Scientific, Abcam, SigmaAldrich, etc.); see also U.S. Pat. No. 9,573,998 for antibodies against human FZD5.

[3] = test system: rabbit; test: rabbit model, inhibitor delivered locally by eye drops, IOP; type: in vivo
Source text: as §2, §3, §4

[4] = test system: human Schlemm's canal cells; test: Fluo-4 staining of intracellular calcium signal; type: cell-based
Source text: (§5) FIGS. 2A-C. (A-C, top panels) Real-time quantitative PCR data showing the expression levels of PLCB1, PPP3R1 and NFATC3 in human Schlemm's canal cells are regulated by sheer stress (A), Wnt5a intervention via siRNAs (B), or Wnt5a stimulation (C). (A-C, lower panels) Representative images and summarized data of Fluo-4 staining showing intracellular calcium signal is regulated by sheer stress (A), Wnt5a intervention via siRNAs (B), or Wnt5a stimulation (C). Green: Fluo-4, blue: DAPI nuclear staining *P<0.05.
In exemplary models vivo data were obtained using well-established mouse model of glaucoma with laser-induced occlusion of episcleral veins (Zhang L, et al. Establishment and Characterization of an Acute Model of Ocular Hypertension by Laser-Induced Occlusion of Episcleral Veins. Invest Ophthalmol Vis Sci. 2017 Aug. 1; 58(10):3879-3886). Intraocular hypertension is introduced in the right eyes (OD) of the mice with the left eyes (OS) as controls. In these examples, the inhibitors or their controls were delivered daily to the right eyes via local administration of subconjunctival injection, starting from Day 1 after the induction of intraocular hypertension in the right eyes of the mice. Left eyes were used as controls. Central corneal thickness and RNFL were measured on Day 3 or Day 7 by in vivo OCT, respectively. All in vitro data were collected from human Schlemm's cells in culture.

[5] = test system: human Schlemm's canal cells; test: real-time quantitative PCR of expression levels in human Schlemm's canal cells; type: cell-based
Source text: FIGS. 1A-G. (A-C) Real-time quantitative PCR data showing the expression levels of FZD5, ROR1 and FZD2 in human Schlemm's canal cells are regulated by sheer stress (A), Wnt5a intervention by small interference RNAs (siRNAs) (B), or Wnt5a stimulation (C). (D and E) Summarized data showing that tube formation of human Schlemm's canal cells was inhibited by FZD5 siRNA (D) or ROR1 siRNA (E), respectively. Scrambled siRNA was used as negative control. *P<0.05. (F and G) Representative images showing that tube formation of human Schlemm's canal cells are regulated by the intervention of FZD5 (F) or ROR1 (G) via siRNAs. *P<0.05.
as §5
FIGS. 3A-B. Real-time quantitative PCR data showing the expression of CAMK2D in human Schlemm's canal cells is regulated by sheer stress (A), or wnt5a stimulation (B), respectively. *P<0.05.
as §1, with “58(10):3879-3886). Intraocular hypertension is introduced in the right eyes (OD) of the mice with the left eyes (OS) as controls.” for “58(10):3879-3886).”

## O=C(OC[C@H]1O[C@@H](OC(=O)c2cc(O)c(O)c(O)c2)[C@H](OC(=O)c2cc(O)c(O)c(O)c2)[C@@H](OC(=O)c2cc(O)c(O)c(O)c2)[C@@H]1OC(=O)c1cc(O)c(O)c(O)c1)c1cc(O)c(O)c(O)c1 [DB03208, Beta-1,2,3,4,6-Penta-O-Galloyl-D-Glucopyranose]
[1]
  tube formation of human Schlemm's canal cells: inhibited

## 6,7-dihydro -10alpha-hydroxy radicicol
[2]
  therapy for pathogenic IOP: effective therapies
[3]
  therapy for pathogenic IOP: effective therapies

B1: Wnt5a: Wnt5a used to stimulate human SC cells (protein, UniProt P41221 62-380, looked up)
Protein Wnt-5a: IIGAQPLCSQLAGLSQGQKKLCHLYQDHMQYIGEGAKTGIKECQYQFRHRRWNCSTVDNTSVFGRVMQIGSRETAFTYAVSAAGVVNAMSRACREGELSTCGCSRAARPKDLPRDWLWGGCGDNIDYGYRFAKEFVDARERERIHAKGSYESARILMNLHNNEAGRRTVYNLADVACKCHGVSGSCSLKTCWLQLADFRKVGDALKEKYDSAAAMRLNSRGKLVQVNSRFNSPTTQDLVYIDPSPDYCVRNESTGSLGTQGRLCNKTSEGMDGCELMCCGRGYDQFKTVQTERCHCKFHWCCYVKCKKCTEIVDQFVCK
[4]
  intracellular calcium signal: regulated
[5]
  expression levels of FZD5, ROR1 and FZD2: regulated; also recorded: increased
  expression levels of PLCB1, PPP3R1 and NFATC3: regulated
  expression of CAMK2D: regulated
